Source: patent US20250326792A1, “A FORMULATION FOR TREATMENT OF PIGMENTARY DISORDERS” (priority 2022, published 2025)
PHPP = 3-Phenylpyrazolo[3,4-d]pyrimidine (N-terminal cap)

What was measured:
[1] = Solubility of synthetic peptide IS103; type: physicochemical
[2] = Stability of IS103 API, long term (Condition 2, −20±5° C.); type: physicochemical; settings: for Internal change in attributes: Appearance / Internal change in attributes: Clarity of solution / Internal change in attributes: Color / Internal change in attributes: Color of solution / Internal change in attributes: Odor / API calculated on the anhydrous basis / Appearance white to off white amorphous powder / Related substances (By HPLC) Any Max Impurity / Related substances (By HPLC) Total Impurity / Solubility Sparingly soluble in water / Water Content (By Karl Fischer-Titrator): −20±5° C.
Description: The purpose of stability testing is to provide evidence on how the quality of a drug substance or drug product varies with time under the influence of a variety of environmental factors such as temperature, humidity, etc. and to establish a re-test period for the drug substance or a shelf life for the drug product and recommended storage conditions. The study was conducted according to the WHO and schedule-Y guidelines.
The IS103 API is a lyophilized white fluffy powder, and it was filled at sterile condition in glass injection vial which has airlock-rubber capping. This container closure system is same as or simulates the packaging proposed for storage and distribution.
The following test attributes have been selected according to the above said guidelines: • appearance; odour; colour; colour of solution (when IS103 API is soluble in solvent); clarity of solution; degradation and assessment of container closure system.
Testing frequency for long term studies have been designed as per schedule Y. The long-term stability studies have been conducted on 1, 3, 6, 9, 12, 18, 24 and 36 months.
The studies were conducted under appropriate storage conditions (with appropriate tolerances) that test IS103 API thermal stability and its sensitivity to moisture. The IS103 API is intended for storage for 36 months. Accordingly, long term stability studies were done for 36 months. The details of the storage conditions have been furnished hereunder.

[3] = test system: Tyrosinase; test: Tyrosinase activity assay (L-DOPA) in B16F10 cells; type: cell-based; settings: for % increase in tyrosinase activity compared to control / Change in tyrosinase activity: TYROSINASE ACTIVITY table
Description: Culture and maintenance of cell lines: B16F10 cells were cultured in RPMI containing 10% fetal bovine serum, 100 units per millilitre (U/mL) penicillin, 0.1 mg/mL streptomycin, and 0.25 microgram per millilitre (μg/mL) amphotericin B at 37 degrees Celsius in a humidified 95% air/5% CO2 incubator. Drug treatment was done 24 hours after seeding. Cells were harvested 48 hours later and melanin content and tyrosinase activity determined in triplicate. NHEM cells were cultured in DMEM containing 10% fetal bovine serum, 100 units per milliliter (U/mL) penicillin, 0.1 mg/mL streptomycin, and 0.25 microgram per millilitre (μg/mL) amphotericin B at 37 degrees Celsius in a humidified 95% air/5% CO2 incubator. Drug treatment was done 24 hours after seeding. Cells were harvested 48 hours later and melanin content and tyrosinase activity determined in triplicate.
IS103 was dissolved in water for injection or DMSO to prepare stock solution of about 50 mg/ml. The stock solution was used for preparation of subsequent dilutions in solvent to achieve working dilutions for treatment ranging 0.1 μg/ml to 1000 μg/ml.
Tyrosinase activity was determined using L-DOPA as a substrate. Briefly, B16F10 and NHEM cells were seeded in a 6-well plate (2×10^4 cells/well) and incubated for overnight. The cells were then treated with or without the test compounds for 46 hours and were washed twice with ice cold PBS and extracted by sonication in 100 μl of 0.1M Tris-HCl buffer (pH 7.2) containing 1% Nonidet P-40, 0.01% SDS, 100 μM phenyl methyl sulfonyl fluoride, and 1 μg/ml aprotinin and then centrifuged at 10,000 g for about 10 minutes at 4° C. The supernatants collected were used for enzyme assay and its protein content was estimated by method of Bradford using BSA as standard. Samples of cell extract supernatant were incubated in duplicate for 1 hour at 37° C. in 1 ml of 0.1M sodium phosphate buffer (pH 7.4) containing 0.1% L-DOPA. The absorbance was then monitored at 450 nm and compared with purified mushroom tyrosinase (Sigma). The standard curve was prepared limiting linearity within the range of experimental value.

## PHPP-Tyr-Arg-Ser-Arg-Lys-Tyr-Ser-Ser-Trp-Tyr-NH2 ({PHPP}-YRSRKYSSWY-NH2) [IS103]
[1]
  Solubility: soluble in water
[2]; long term stability condition (of −20±5° C.)
  found to be stable for: 36 months
[2]; 1st month
  Internal change in attributes: Appearance: No change
  Internal change in attributes: Clarity of solution: No change
  Internal change in attributes: Color: No change
  Internal change in attributes: Color of solution: No change
  Internal change in attributes: Odor: No change
[2]; 3 M
  API calculated on the anhydrous basis: 99.51%
  Appearance white to off white amorphous powder: White
  Related substances (By HPLC) Any Max Impurity: 0.22%
  Related substances (By HPLC) Total Impurity: 0.37%
  Solubility Sparingly soluble in water: Complies
  Water Content (By Karl Fischer-Titrator): 4.06% w/w
[2]; 3rd month
  Internal change in attributes: Appearance: No change
  Internal change in attributes: Clarity of solution: No change
  Internal change in attributes: Color: No change
  Internal change in attributes: Color of solution: No change
  Internal change in attributes: Odor: No change
[2]; 12 M
  API calculated on the anhydrous basis: 99.11%
  Appearance white to off white amorphous powder: White
  Related substances (By HPLC) Any Max Impurity: 0.36%
  Related substances (By HPLC) Total Impurity: 0.44%
  Solubility Sparingly soluble in water: Complies
  Water Content (By Karl Fischer-Titrator): 4.45% w/w
[2]; 12th month
  Internal change in attributes: Appearance: No change
  Internal change in attributes: Clarity of solution: No change
  Internal change in attributes: Color: No change
  Internal change in attributes: Color of solution: No change
  Internal change in attributes: Odor: No change
[2]; 18 M
  API calculated on the anhydrous basis: 99.03%
  Appearance white to off white amorphous powder: White
  Related substances (By HPLC) Any Max Impurity: 0.62%
  Related substances (By HPLC) Total Impurity: 0.62%
  Solubility Sparingly soluble in water: Complies
  Water Content (By Karl Fischer-Titrator): 4.54% w/w
[2]; 18th month
  Internal change in attributes: Appearance: No change
  Internal change in attributes: Clarity of solution: No change
  Internal change in attributes: Color: No change
  Internal change in attributes: Color of solution: No change
  Internal change in attributes: Odor: No change
[2]; 24 M
  API calculated on the anhydrous basis: 98.95%
  Appearance white to off white amorphous powder: White
  Related substances (By HPLC) Any Max Impurity: 0.60%
  Related substances (By HPLC) Total Impurity: 0.82%
  Solubility Sparingly soluble in water: Complies
  Water Content (By Karl Fischer-Titrator): 4.61% w/w
[2]; 24th month
  Internal change in attributes: Appearance: No change
  Internal change in attributes: Clarity of solution: No change
  Internal change in attributes: Color: No change
  Internal change in attributes: Color of solution: No change
  Internal change in attributes: Odor: No change
[2]; 36 M
  API calculated on the anhydrous basis: 98.73%
  Appearance white to off white amorphous powder: White
  Related substances (By HPLC) Any Max Impurity: 0.84%
  Related substances (By HPLC) Total Impurity: 0.97%
  Solubility Sparingly soluble in water: Complies
  Water Content (By Karl Fischer-Titrator): 4.56% w/w
[2]; 36th month
  Internal change in attributes: Appearance: No change
  Internal change in attributes: Clarity of solution: No change
  Internal change in attributes: Color: No change
  Internal change in attributes: Color of solution: No change
  Internal change in attributes: Odor: No change
[2]; Initial
  API calculated on the anhydrous basis: 99.73%
  Appearance white to off white amorphous powder: White
  Related substances (By HPLC) Any Max Impurity: 0.14%
  Related substances (By HPLC) Total Impurity: 0.32%
  Solubility Sparingly soluble in water: Complies
  Water Content (By Karl Fischer-Titrator): 3.91% w/w
[3]; B16F10 CELLS, 250 μg/mL
  increase in Tyrosinase activity when compared to control: 55.33%
  % increase in tyrosinase activity compared to control: 55.33%
  Change in tyrosinase activity: 70.3 ± 1.70
[3]; B16F10 cells, different concentrations, about 48 hours
  effect on tyrosinase activity (FIG. 6): increased tyrosinase activity
[3]; B16F10 CELLS, 0.1 μg/mL
  % increase in tyrosinase activity compared to control: 0%
  Change in tyrosinase activity: 15.0 ± 1.60
[3]; B16F10 CELLS, 1 μg/mL
  % increase in tyrosinase activity compared to control: 3%
  Change in tyrosinase activity: 18.0 ± 2.20
[3]; B16F10 CELLS, 10 μg/mL
  % increase in tyrosinase activity compared to control: 10.33%
  Change in tyrosinase activity: 25.3 ± 1.20
[3]; B16F10 CELLS, 50 μg/mL
  % increase in tyrosinase activity compared to control: 24%
  Change in tyrosinase activity: 39.0 ± 2.20
[3]; B16F10 CELLS, 100 μg/mL
  % increase in tyrosinase activity compared to control: 42.33%
  Change in tyrosinase activity: 57.3 ± 4.20
[3]; B16F10 CELLS, 500 μg/mL
  % increase in tyrosinase activity compared to control: 62%
  Change in tyrosinase activity: 77.0 ± 3.00
[3]; B16F10 CELLS, 1000 μg/mL
  % increase in tyrosinase activity compared to control: 60.33%
  Change in tyrosinase activity: 75.3 ± 2.50
